Data reported in the supplement of paper PMC9732359.
± gives the uncertainty stated by the source.

Test: protein stability index of a GFP-peptide fusion (yeast GPS) (PSI 1-4); higher = more stable; sorted into four equal gates, so the index is relative within each strain
Outline: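 The protein stability index combines read frequencies across sorting gates, each weighted by its gate number and then summed. To obtain those frequencies, a pooled yeast library of GFP fusions to tiled 17-residue yeast protein peptides, on a plasmid also expressing Cherry, was grown to mid-log phase in leucine-free medium. The cells were sorted into four equal gates by GFP/Cherry ratio before plasmid amplification by PCR and Illumina sequencing.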

Sequence | protein stability index (doa10∆) | protein stability index (pdr5∆) | protein stability index (san1∆) | protein stability index (ubr1∆)
NSDDIIDVDMDASPAPS [SRB5] | 2.71 ± 0.051 | 2.89 ± 0.061 | 2.78 ± 0.056 | 3 ± 0.072
NSDDILSLHENYPQDEI [POP1] | 2.94 ± 0.06 | 3.12 ± 0.073 | 2.82 ± 0.084 | 2.92 ± 0.05
NSDKPRDVYVFDKVEVQ [DIS3] | 2.96 ± 0.058 | 2.93 ± 0.066 | 3.1 ± 0.056 | 3 ± 0.059
NSESTTQGGNVNLDNTA [RPT5] | 3.53 ± 0.11 | 3.41 ± 0.12 | 3.27 ± 0.09 | 3.11 ± 0.087
NSFYYTSLLYLSTLEPS [RPN9] | 1.82 ± 0.05 | 1.56 ± 0.046 | 1.47 ± 0.1 | 1.77 ± 0.041
NSGKQQYYRGLPLYEKN [SWP82] | 2.56 ± 0.089 | 2.5 ± 0.06 | 2.9 ± 0.075 | 3.01 ± 0.043
NSIDINYKGLPKKYKEN [SMC1] | 2.91 ± 0.068 | 3.16 ± 0.08 | 3.21 ± 0.07 | 3.36 ± 0.059
NSIKNVPPILIILPLDN [SSN2] | 2.01 ± 0.21 | 1.61 ± 0.11 |  | 1.82 ± 0.068
NSINNNNIKNGTNNISQ [YDL088C/ASM4] | 2.79 ± 0.044 | 2.75 ± 0.046 | 2.74 ± 0.046 | 2.98 ± 0.035
NSITKDNIDYAPMRLAT [YJL039C/NUP192] | 2.58 ± 0.048 | 2.74 ± 0.038 | 2.71 ± 0.05 | 2.57 ± 0.035
NSLKETLQDFHLIFSNA [SNF2] | 2.85 ± 0.072 | 2.82 ± 0.068 | 2.27 ± 0.13 | 2.44 ± 0.092
NSNINTLTASPDGTLIA [ASC1] | 2.88 ± 0.078 | 2.68 ± 0.061 | 2.88 ± 0.061 | 2.82 ± 0.046
NSNTTNQNSSTGAGAFG [YJL041W/NSP1] | 3.04 ± 0.053 | 3.07 ± 0.074 | 3.03 ± 0.051 | 2.96 ± 0.05
NSRGKFDDACNQIWNIA [SSN2] | 3.04 ± 0.15 | 3.01 ± 0.1 | 2.87 ± 0.12 | 3.09 ± 0.14
NSSEEDKKKGQNVTSET [ITC1] | 3.5 ± 0.14 | 3.31 ± 0.17 | 3.06 ± 0.17 | 3.29 ± 0.11
NSSTSPAPSIPSTGFKF [YLR335W/NUP2] | 2.38 ± 0.04 | 2.5 ± 0.036 | 2.48 ± 0.043 | 2.21 ± 0.028
NSTATMQHNPLAGKRGP [PGD1] | 3.05 ± 0.047 | 3.09 ± 0.044 | 3 ± 0.042 | 3.03 ± 0.033
NSTSKNTLLQQQNYSKV [SWI1] | 2.33 ± 0.067 | 2.86 ± 0.12 | 2.08 ± 0.078 | 2.68 ± 0.06
NTEITQKSSKENIENEE [ECM29] | 3.05 ± 0.082 | 3.28 ± 0.087 | 2.76 ± 0.078 | 2.94 ± 0.09
NTFQKTVEPVYQMHIKT [FAS1] | 1.68 ± 0.038 | 1.78 ± 0.046 | 1.58 ± 0.062 | 1.5 ± 0.059

Sequence | protein stability index (doa10∆) | protein stability index (pdr5∆) | protein stability index (san1∆) | protein stability index (ubr1∆)
NTHNKSTKRVTKHPSLK [POP7] | 2.6 ± 0.07 | 2.78 ± 0.062 | 2.67 ± 0.044 | 2.72 ± 0.046
NTILNSSSDFRLHYYPK [BRR2] | 2.75 ± 0.054 | 3.17 ± 0.067 | 2.81 ± 0.048 | 3.11 ± 0.042
NTKVPVDIVNQWFLQYQ [YML103C/NUP188] | 1.78 ± 0.044 | 2.15 ± 0.038 | 1.85 ± 0.058 | 2.18 ± 0.034
NTNPSPLKTQTKNGTPN [GAL11] | 2.91 ± 0.059 | 2.9 ± 0.05 | 2.58 ± 0.049 | 2.94 ± 0.04
NTPLSLPTRGTLESLEN [COR1] | 3.21 ± 0.12 | 2.37 ± 0.08 | 2.6 ± 0.27 | 2.41 ± 0.065
NTRKNMSISLESSKALA [DIS3] | 1.96 ± 0.082 | 2.24 ± 0.1 | 1.96 ± 0.13 | 2.08 ± 0.078
NTTKTADTKAPTFTFGS [YLR335W/NUP2] | 3.36 ± 0.08 | 3.33 ± 0.063 | 3.21 ± 0.061 | 3.38 ± 0.057
NTVMLQGIFKNSSNYFG [AAR2] | 2.21 ± 0.15 | 1.29 ± 0.094 | 2.15 ± 0.14 | 1.46 ± 0.2
NTVPQVTNFNSTNEDQN [SRB5] | 2.83 ± 0.09 | 3.21 ± 0.056 | 3.02 ± 0.051 | 2.9 ± 0.051
NVAHRIKEDIKKQPSIL [SNF2] | 2.9 ± 0.15 | 3.21 ± 0.14 | 3.05 ± 0.097 | 3.19 ± 0.12
NVDGNIKIVYALTTIKG [RPS18A] |  | 1.49 ± 0.18 |  | 1.23 ± 0.11
NVDVCVMEIGKDAEYLR [PUP1] | 2.84 ± 0.068 | 2.73 ± 0.063 | 2.7 ± 0.066 | 2.39 ± 0.051
NVFTPEISSQIEILVKD [RRI2] | 1.65 ± 0.1 | 2.02 ± 0.12 | 2.65 ± 0.15 | 1.3 ± 0.066
NVGDNNSTASSSNISPE [ARP7] | 2.83 ± 0.089 | 3.11 ± 0.062 | 3.04 ± 0.055 | 3.08 ± 0.045
NVHGSLEPFLLMLEDTD [BRR2] | 2.47 ± 0.077 | 2.63 ± 0.088 | 2.87 ± 0.11 | 2.94 ± 0.059
NVKTSVSQLYRISEKSV [RPO31] | 3.04 ± 0.11 | 3.22 ± 0.1 | 3.12 ± 0.076 | 3.16 ± 0.083
NVLVTMPVAPTMEVKSF [YMR129W/POM152] | 1.54 ± 0.068 | 1.62 ± 0.11 | 1.95 ± 0.11 | 1.46 ± 0.068
NVRALYMRLWEINETEF [RMP1] | 3 ± 0.24 |  |  | 
NVSFVLPDEKSDAMSID [YCG1] | 3.31 ± 0.072 | 3.3 ± 0.051 | 3.25 ± 0.052 | 3.21 ± 0.067
NVTFGSKKDPRILKNVS [YMR153W/NUP53] | 2.81 ± 0.053 | 2.69 ± 0.056 | 2.81 ± 0.045 | 2.67 ± 0.035
